Laboratory results reported in patent US9061070B2, “Treating stroke and other diseases without inhibiting N-type calcium channels” (NoNO, Inc., priority 2007, dated 2015).

Biological target: T1, chemokine CXCR2 (IL-8Rb) (Homo sapiens, UniProt P25025)
T1 sequence (P25025 1-360): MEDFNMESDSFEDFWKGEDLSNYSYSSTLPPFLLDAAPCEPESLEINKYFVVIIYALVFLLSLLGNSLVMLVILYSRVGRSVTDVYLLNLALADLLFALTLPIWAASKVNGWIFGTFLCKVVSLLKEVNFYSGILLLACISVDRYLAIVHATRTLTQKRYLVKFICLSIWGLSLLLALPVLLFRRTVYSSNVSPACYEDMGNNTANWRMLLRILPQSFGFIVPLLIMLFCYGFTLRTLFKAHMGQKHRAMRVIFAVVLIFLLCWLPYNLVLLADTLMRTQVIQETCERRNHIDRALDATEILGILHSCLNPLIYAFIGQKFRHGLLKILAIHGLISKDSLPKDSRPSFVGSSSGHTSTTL
Assay: Competitive radioligand binding screen, IL-8/IL-8RB
Details: 10 μM peptide

YGRKKRRQRRRKLSSIESDV [Tat-NR2B9c, reference compound]
inhibition of IL-8/IL-8RB: 80%
